In paper PMC12125293:

Molecular target: HR2 peptide of the SARS-CoV-2 spike (H1159-K1211), His-SUMO removed (SARS-CoV-2) (UniProt P0DTC2)
Assay: crystal structure

Question: For “HR2 peptide of the SARS-CoV-2 spike (H1159-K1211), His-SUMO removed (from UniProt P0DTC2 1159-1211) (domain or fragment)”, which stoichiometry N is on record?
Answer: 3
